Measured values reported in EP0622394A1, “Reversible modification of sulfur-containing molecules with polyalkylene glycol derivatives and their use” (S.A. LABORATOIRES S.M.B., priority 1993, dated 1994).

Key:
[1] = Infrared spectroscopy (Fourier self-deconvolution, curve fitting of the amide I region): content of secondary structures; type: physicochemical; settings: FTIR amide I region; counter-ions K+ and Cl-; pH 5.0
Procedure: Spectra were recorded with a Perkin-Elmer infrared spectrometer 983 G equipped with a Perkin-Elmer microspecular reflectance accessory (ref. P.E. 221-0357). The internal reflection element was a Germanium ATR plate (50 x 20 x 2 mm, Harrick EJ 2121) with an aperture angle of 45° yielding 25 […] reflections. The mean stan rate was 15.5 cm⁻¹/minute and up to 20 accumulations were performed when necessary to improve the signal to noise ratio. The spectrophotometer was continuously purged with air dried on a silica gel column (5 x 130 cm) at a flow rate of 7 l/minute. Spectra were recorded at a nominal resolution of 2 cm⁻¹ and encoded every 0.5 cm⁻¹. At the end of the scan, they are transferred from the memory of the spectrophotometer to an Olivetti M 40 itself coupled to an Olivetti M 24 computer Spectra were Fourier transformed and stored for subsequent treatments.
In both cases the S-pegylated protein eluted from the CM-Sephadex C-50 before the irreversibly oxidized material. […] Indeed : 1. […] The proportions of the different secondary structures were determined, as previously described by Cabiaux et al, 1989, J. Biol. Chem., 264:4928-4938, using the frequency regions for the different structures as follows : 1661-1647 cm⁻¹ : α-helix; 1689-1682 + 1637-1615 cm⁻¹ : β-sheet; 1644.5-1637.7 cm⁻¹ : random and 1682-1661 cm⁻¹ : β-turn. […]

[2] = Acid denaturation: residual amidase activity after incubation in acidic buffer; type: physicochemical; settings: 40 µM proteinase, 25°C
Procedure: Indeed : • 1. […] Similar results were obtained in the case of papain.
Time course dependence of acid denaturation of S-methylthio PP III (---) and S-pegyl (5000) thio PP III (―) at various pH and at 25°C.
At various time intervals, aliquot were removed and assayed for residual amidase activity using the assay method N° 3.

| Molecule | PERCENTAGE OF Random [1] | PERCENTAGE OF α-Helix [1] | PERCENTAGE OF β-Sheet [1] | PERCENTAGE OF β-Turns [1] | lowest pH at which solutions remain stable (acid denaturation) [2] |
| --- | --- | --- | --- | --- | --- |
| S-Pegylated Papaya Pectinase III: papaya proteinase III S-pegylated with PEG 5 kDa disulfide derivative | 8.3 | 27.9 | 36.1 | 27.7 | 2.6 |
| S-Pegylated papain: papain modified at its thiol with a 5 kDa PEG chain through a disulfide bond (conjugate, UniProt P00784 134-345, looked up, S-PEG 5 kDa, papain modified at its thiol with a 5 kDa PEG chain through a disulfide bond) Papain: IPEYVDWRQKGAVTPVKNQGSCGSCWAFSAVVTIEGIIKIRTGNLNEYSEQELLDCDRRSYGCNGGYPWSALQLVAQYGIHYRNTYPYEGVQRYCRSREKGPYAAKTDGVRQVQPYNEGALLYSIANQPVSVVLEAAGKDFQLYRGGIFVGPCGNKVDHAVAAVGYGPNYILIKNSWGTGWGENGYIRIKRGTGNSYGVCGLYTSSFYPVKN | 8.2 | 28.2 | – | 27.0 | – |
